{
  "source": "paper PMC12176259",
  "about": "“Bacterial transcriptional repressor NrdR – a flexible multifactorial nucleotide sensor” (The Febs Journal, 2024)",
  "key": {"[1]": {"target": "the molecule itself", "assay": "SEC; Superdex 200 PC 3.2/30, 4–8 °C, Tris–HCl pH 9.0, 300 mM NaCl; NrdR with 0.2 mM ADP and 0.2 mM MgCl2"}, "[2]": {"target": "the molecule itself", "assay": "SEC; Superdex 200 PC 3.2/30, 4–8 °C, Tris–HCl pH 9.0, 300 mM NaCl; NrdR pre‐incubated with ADP and dATP, nucleotides in the SEC buffer; 10–90 μM NrdR"}, "[3]": {"target": "the molecule itself", "assay": "SEC; Superdex 200 PC 3.2/30, 4–8 °C, 25 or 50 mM Tris–HCl pH 9.0, 300 mM NaCl; 55 μM apo‐NrdR, no nucleotide effectors"}, "[4]": {"target": "the molecule itself", "assay": "SEC; Superdex 200 PC 3.2/30, 4–8 °C, Tris–HCl pH 9.0, 300 mM NaCl; ATP‐loaded NrdR, excess MgCl2 (1 mM or higher); elutes in the void volume"}, "[5]": {"target": "the molecule itself", "assay": "SEC; Superdex 200 PC 3.2/30, 4–8 °C, Tris–HCl pH 9.0, 300 mM NaCl; NrdR pre‐incubated with AMP and dAMP"}, "[6]": {"target": "the molecule itself", "assay": "SEC; Superdex 200 PC 3.2/30, 4–8 °C, Tris–HCl pH 9.0, 300 mM NaCl; NrdR pre‐incubated with ATP and dATP, nucleotides in the SEC buffer; 7–55 μM NrdR"}, "[7]": {"target": "the molecule itself", "assay": "SEC; ATP‐dATP‐loaded NrdR at high protein concentrations (440–550 μM)"}, "[8]": {"target": "the molecule itself", "assay": "SEC; Superdex 200 PC 3.2/30, 4–8 °C, Tris–HCl pH 9.0, 300 mM NaCl; ATP‐loaded NrdR (0.1 mM ATP), low MgCl2 (0.1–0.2 mM); 17–55 μM NrdR"}, "[9]": {"target": "the molecule itself", "assay": "crystal structure; SeMet‐EcoNrdR with ATP and dATP, 10 mg/mL; 0.1 M HEPES pH 7.5, 0.2 M MgCl2, 12.5% PEG 3350, 20 °C; one tetramer in the asymmetric unit"}},
  "note": "Values joined by “and” are separate entries in the source; they are usually repeats but may differ in a detail not shown here. Equal entries are not always repeated.",
  "data": [
    {"protein": "Escherichia coli NrdR (natural protein, E. coli K‐12 strain MG1655, Transcriptional repressor NrdR of E. coli K‐12 strain MG1655, wild type (NP_414947.1); The oligomeric state depends on the loaded nucleotides (apo: dimer); ATP‐dATP, ADP‐dATP, ADP, AMP‐dAMP: tetramer; also called EcoNrdR; E. coli NrdR; source: E. coli BL21(DE3), purified (HisTrap FF Ni‐Sepharose, desalting)) MHCPFCFAVDTKVIDSRLVGEGSSVRRRRQCLVCNERFTTFEVAELVMPRVVKSNDVREPFNEEKLRSGMLRALEKRPVSSDDVEMAINHIKSQLRATGEREVPSKMIGNLVMEQLKKLDKVAYIRFASVYRSFEDIKEFGEEIARLED", "values": [
      {"measurement": "stoichiometry N", "setting": "[1]", "value": 4.5, "unit": "subunits"},
      {"measurement": "stoichiometry N", "setting": "[2]", "value": 4.8, "unit": "subunits"},
      {"measurement": "stoichiometry N", "setting": "[3]", "value": 2.1, "unit": "subunits"},
      {"measurement": "stoichiometry N", "setting": "[4]", "value": "> 33", "unit": "subunits"},
      {"measurement": "stoichiometry N", "setting": "[5]", "value": 4.8, "unit": "subunits"},
      {"measurement": "stoichiometry N", "setting": "[6]", "value": 4.5, "unit": "subunits"},
      {"measurement": "stoichiometry N", "setting": "[7]", "value": "8 subunits and 16 subunits"},
      {"measurement": "stoichiometry N", "setting": "[8]", "value": 12.1, "unit": "subunits"}
    ]},
    {"protein": "Selenomethionine‐derivatized Escherichia coli NrdR (natural protein, E. coli K‐12 strain MG1655, selenomethionine in place of methionine, Transcriptional repressor NrdR of E. coli K‐12 strain MG1655, wild type (NP_414947.1), from the same plasmid pET30a(+)::nrdR as m1; Same construct as m1, made in a methionine auxotroph with seleno‐L‐methionine; also called SeMet‐EcoNrdR; Se‐Met substituted EcoNrdR; source: E. coli B834 (DE3) in SelenoMet Minimal Media, purified) MHCPFCFAVDTKVIDSRLVGEGSSVRRRRQCLVCNERFTTFEVAELVMPRVVKSNDVREPFNEEKLRSGMLRALEKRPVSSDDVEMAINHIKSQLRATGEREVPSKMIGNLVMEQLKKLDKVAYIRFASVYRSFEDIKEFGEEIARLED", "values": [
      {"measurement": "binding result", "setting": "[9]", "value": "binds"}
    ]}
  ]
}
